Reference: patent US20260049113A1

T1: Full length human midkine protein (human) (UniProt P21741)
T1 sequence: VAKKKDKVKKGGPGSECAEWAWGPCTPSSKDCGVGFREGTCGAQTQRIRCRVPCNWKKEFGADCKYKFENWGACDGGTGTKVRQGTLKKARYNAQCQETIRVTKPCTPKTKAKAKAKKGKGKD

B1: Δ14 MDK (truncated human midkine lacking 14 amino acids from the C-terminus) (ligand)
chain: VAKKKDKVKKGGPGSECAEWAWGPCTPSSKDCGVGFREGTCGAQTQRIRCRVPCNWKKEFGADCKYKFENWGACDGGTGTKVRQGTLKKARYNAQCQETIRVTKPCTPK
B2: Δ25 MDK (truncated human midkine lacking 25 amino acids from the C-terminus) (ligand)
chain: VAKKKDKVKKGGPGSECAEWAWGPCTPSSKDCGVGFREGTCGAQTQRIRCRVPCNWKKEFGADCKYKFENWGACDGGTGTKVRQGTLKKARYNAQCQE
B3: Δ34 MDK (truncated human midkine lacking 34 amino acids from the C-terminus) (ligand)
chain: VAKKKDKVKKGGPGSECAEWAWGPCTPSSKDCGVGFREGTCGAQTQRIRCRVPCNWKKEFGADCKYKFENWGACDGGTGTKVRQGTLKK
B4: Δ41 MDK (truncated human midkine lacking 41 amino acids from the C-terminus) (ligand)
chain: VAKKKDKVKKGGPGSECAEWAWGPCTPSSKDCGVGFREGTCGAQTQRIRCRVPCNWKKEFGADCKYKFENWGACDGGTGTKV
B5: Δ58 MDK (truncated human midkine lacking 58 amino acids from the C-terminus) (ligand)
chain: VAKKKDKVKKGGPGSECAEWAWGPCTPSSKDCGVGFREGTCGAQTQRIRCRVPCNWKKEFGADCK

What follows are binders tested against T1, Full length human midkine protein (human) (assay: cell-based or functional assay).
B1 gave a Total Area (area under the curve of wound width, Cell Migration Assay) of 1710.
Work on B2 yielded a Total Area (area under the curve of wound width, Cell Migration Assay) of 1040.
In the case of B3, the Total Area (area under the curve of wound width, Cell Migration Assay) is reported as 768.
B4 was tested, and the Total Area (area under the curve of wound width, Cell Migration Assay) was 924.
B5 gave a Total Area (area under the curve of wound width, Cell Migration Assay) of 1990.
